Patent publication US20200369771A1 (JOINT STOCK COMPANY BIOCAD, published 2020)
Where a chain is given by its changes, count along the chain named.

Key:
[1] = molecular target: T1, FcgRIa (Homo sapiens (Human), UniProt P12314 16-292, C-terminal biotin; the letters of any biotinylation or purification tag are not given); assay: Biolayer interferometry (Octet RED96), biotinylated receptor on streptavidin sensors, antibody in solution, phosphate buffer pH 7.4
T1 construct: Biotinylated receptor held on streptavidin sensors; also called Fcg receptor; Fcγ-receptor
T1 sequence (P12314 16-292 limits assumed): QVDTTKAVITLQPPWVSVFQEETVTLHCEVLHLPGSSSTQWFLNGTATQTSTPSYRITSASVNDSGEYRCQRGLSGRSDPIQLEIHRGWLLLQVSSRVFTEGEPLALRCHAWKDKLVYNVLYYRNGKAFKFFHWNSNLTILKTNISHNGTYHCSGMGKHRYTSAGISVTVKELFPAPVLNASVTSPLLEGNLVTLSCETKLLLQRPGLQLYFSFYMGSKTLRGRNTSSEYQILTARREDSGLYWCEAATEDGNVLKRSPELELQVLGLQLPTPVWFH

[2] = molecular target: T2, cynomolgus monkey PD-L1 (in solution) (cynomolgus monkey, UniProt G7PSE7 19-238); assay: BLI OctetRed 96, BCD-135 on AR2G sensors, PD-L1 in solution at 10 to 1 ug/ml, 30 C, 1:1 model; cynomolgus PD-L1
T2 construct: also called cynomolgus PD-L1 antigen
T2 sequence (G7PSE7 entry or part of it): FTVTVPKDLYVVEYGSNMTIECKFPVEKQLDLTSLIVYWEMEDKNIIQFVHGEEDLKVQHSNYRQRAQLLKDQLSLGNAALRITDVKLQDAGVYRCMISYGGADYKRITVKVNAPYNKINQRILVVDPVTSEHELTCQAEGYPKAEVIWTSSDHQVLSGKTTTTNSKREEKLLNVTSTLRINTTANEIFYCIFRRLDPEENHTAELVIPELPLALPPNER
Method: (§1) Constants of the antibody binding affinity to human and cynomolgus PD-L1 were measured with an OctetRed 96 instrument (from ForteBio). […] The assay was carried out at 30 ° C. using PBS containing 0.1% Tween-20 and 0.1% BSA as a reaction buffer. The binding of human and monkey PD-L1 solutions to a sensor-bound antibody was analysed in a work buffer with an antigen concentration of 10 μg/ml to 1 μg/ml.
(§2) The binding curves minus the reference signal were analyzed using Octet Data Analysis (ver 8.2) software according to the standard procedure using the 1:1 interaction model.

[3] = molecular target: T3, human PD-L1-Fc (human, UniProt Q9NZQ7 19-238, limits assumed); assay: ELISA, antigen coated at 1 µg/ml, BCD-135 titrated 5 to 0.0007 µg/ml, anti-human Fab HRP, OD 450 nm
T3 construct: not shown: Fc part
T3 sequence (Q9NZQ7 19-238 limits assumed): as the sequence (G7PSE7 entry or part of it) above, with T33A, S34A, N62S, Q68R, R82Q, L173F, A185T, I192T, L215H counted along it
Method: (§3) ELISA was used to measure the relative affinity of anti-PD-L1 antibodies and other antigens. For binding assay, ELISA plate wells (medium binding from Greiner bio one) were coated with 50 μl of PD-L1-Fc, fPCSK9-EPEA, Ang2-H6F, GM-CSF-FE, CD3-ED-Fc, IL17a, CD38-Fc, IL6R-Fc (1 μg/ml in lx carbonate buffer), hermetically sealed and incubated overnight at 4° C. All the subsequent stages were conducted following standard ELISA protocol. To block a non-specific binding, a buffer BB (200 μL of 0.5% skimmed milk in PBS) was added. The plates were incubated on a shaker for an hour at room temperature. […] The plates were again incubated, shaking for one hour at room temperature, followed by washing for three times each plate well with PBS-Twin buffer. Once washed, (50 μL/well) anti-human Fab HRP-conjugated secondary antibodies (from Pierce-ThermoScientific) were added at 1:5000 ratio in PBS-Tween. The plates were shaken on a rotary shaker (50 min, room temperature) and washed for three times with FSB-Twin buffer, as described above. The colourimetric signal was developed by adding TMB (50 μL/well) until saturation (average 3-5 min), then the development was quenched by adding stop solution (30 μL/well, 10% sulphuric acid). Colour signal was measured at a wavelength of 450 nm using a suitable Tecan-Sunrise plate reader (from Tecan).

[4] = molecular target: T4, IL17a (Homo sapiens (Human), UniProt Q16552 24-155); assay: ELISA, antigen coated at 1 µg/ml, BCD-135 titrated 5 to 0.0007 µg/ml, OD 450 nm
T4 construct: Off-target antigen in the specificity ELISA
T4 sequence (Q16552 24-155 limits assumed): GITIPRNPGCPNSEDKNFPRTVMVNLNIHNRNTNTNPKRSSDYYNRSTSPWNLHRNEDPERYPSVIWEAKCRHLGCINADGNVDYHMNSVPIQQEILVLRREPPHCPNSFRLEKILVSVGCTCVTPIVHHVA
Method: as §3

[5] = molecular target: T5, rabbit PD-L1-Fc (rabbit, UniProt G1SUI3 19-236); assay: ELISA, PD-L1-Fc coated at 0.5 ug/ml
T5 construct: also called rabbity PD-L1-Fc; not shown: Fc part
T5 sequence: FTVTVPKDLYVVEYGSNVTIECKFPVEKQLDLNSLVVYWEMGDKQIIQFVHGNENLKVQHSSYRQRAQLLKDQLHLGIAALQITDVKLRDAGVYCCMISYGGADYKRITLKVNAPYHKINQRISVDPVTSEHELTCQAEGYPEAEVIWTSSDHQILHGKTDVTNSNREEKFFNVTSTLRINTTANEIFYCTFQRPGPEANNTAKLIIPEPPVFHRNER
Method: (§4) ELISA was used to measure the relative affinity of anti-PD-L1 antibodies from different organisms. For the binding assay, ELISA plate wells (medium binding from Greiner bio one) were coated with 50 μl of human, cynomolgus, murine, rat, canine, rabbity PD-L1-Fc, (0.5 μg/ml in 1× carbonate buffer), hermetically sealed and incubated overnight at 4° C. All the subsequent stages were conducted following standard ELISA protocol described above.

[6] = molecular target: T6, human PD-L1 (recombinant, in solution) (human, UniProt Q9NZQ7 19-238, limits assumed); assay: BLI OctetRed 96, BCD-135 on AR2G sensors, PD-L1 in solution at 10 to 1 ug/ml, 30 C, 1:1 model; human PD-L1
T6 construct: also called human PD-L1 antigen
T6 sequence (Q9NZQ7 other isoform, or with tags, fused parts or gaps limits assumed): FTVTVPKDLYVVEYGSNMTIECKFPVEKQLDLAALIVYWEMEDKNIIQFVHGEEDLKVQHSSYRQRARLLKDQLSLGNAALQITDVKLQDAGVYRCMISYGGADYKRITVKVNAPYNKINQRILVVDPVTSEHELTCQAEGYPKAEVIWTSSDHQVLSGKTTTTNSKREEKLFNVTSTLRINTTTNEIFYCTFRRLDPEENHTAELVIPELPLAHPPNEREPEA
Method: as §1, §2

[7] = molecular target: rat PD-L1-Fc (rat, UniProt D4AE25 19-239); assay: ELISA, PD-L1-Fc coated at 0.5 µg/ml, antibody titrated 5 to 0.0007 µg/ml, OD 450 nm
Chain of rat PD-L1-Fc (D4AE25 entry or part of it limits assumed): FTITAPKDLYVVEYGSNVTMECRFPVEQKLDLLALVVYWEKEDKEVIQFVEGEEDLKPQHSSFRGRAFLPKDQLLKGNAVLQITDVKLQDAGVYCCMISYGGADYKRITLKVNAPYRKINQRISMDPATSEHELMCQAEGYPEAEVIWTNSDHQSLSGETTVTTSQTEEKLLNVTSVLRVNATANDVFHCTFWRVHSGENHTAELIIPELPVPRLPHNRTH
Method: as §4

[8] = molecular target: T3, human PD-L1-Fc; assay: as above
Method: as §4

[9] = molecular target: T7, cynomolgus PD-L1-Fc (cynomolgus, UniProt G7PSE7 19-238); assay: as above
T7 construct: not shown: Fc part
T7 sequence (G7PSE7 entry or part of it): as the sequence (G7PSE7 entry or part of it) above
Method: as §4

[10] = molecular target: T8, murine PD-L1-Fc (murine, UniProt Q9EP73 19-239, limits assumed); assay: as above
T8 construct: not shown: Fc part
T8 sequence (Q9EP73 19-239 limits assumed): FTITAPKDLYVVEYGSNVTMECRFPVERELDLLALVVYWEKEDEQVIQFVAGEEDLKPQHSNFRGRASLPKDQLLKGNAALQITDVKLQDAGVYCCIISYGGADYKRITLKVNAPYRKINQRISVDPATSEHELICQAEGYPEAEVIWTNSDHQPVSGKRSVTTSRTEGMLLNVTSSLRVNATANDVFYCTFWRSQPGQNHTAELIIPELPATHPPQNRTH
Method: as §4

[11] = molecular target: T9, canine PD-L1-Fc (canine, UniProt E2RKZ5 19-236); assay: as above
T9 sequence: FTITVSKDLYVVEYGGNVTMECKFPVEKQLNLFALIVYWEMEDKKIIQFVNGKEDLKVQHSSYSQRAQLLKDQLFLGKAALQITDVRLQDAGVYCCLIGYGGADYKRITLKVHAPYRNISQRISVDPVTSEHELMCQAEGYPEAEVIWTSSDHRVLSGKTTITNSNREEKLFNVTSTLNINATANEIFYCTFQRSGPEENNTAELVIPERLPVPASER
Method: as §4

[12] = molecular target: T6, human PD-L1 (recombinant, in solution); assay: BLI Octet Red 96, Fab from E. coli supernatant on anti-FABCH1 sensors, PD-L1 at 30 ug/mL, 1:1 model
Method: Anti-FABCH1-biosensors (SA) were rehydrated for 30 minutes in the reaction buffer containing 10 mM PBS, pH 7.2-7.4, 0.1% Tween-20, 0.1% BSA. The reaction buffer was added into study E. coli supernatant samples to a final concentration of 1×. Then, anti-FABCH1-biosensors were submerged in E. coli supernatants containing Fab fragments of candidate antibodies for 12 hours at 4 ° C. Sensors with surface immobilized Fab fragments were transferred into wells with reaction buffer wherein baseline was recorded (for 60 seconds). Next, sensors were transferred to wells with analyte solution (PD-L1, 30 μg/mL) to associate antigen-antibody complex (300 s). Then, sensors were returned to the wells containing the reaction buffer for the next dissociation step (600 s). After each experiment, used sensors were regenerated by 3-time placing them into the regeneration buffer (Gly-HCl, pH 1.7), thereafter they were used in the next experiment. Obtained curve analysis was carried out using Octet Data Analysis (ver 7.0) software according to the standard procedure using 1:1 interaction model.

B1: BCD-135 antibody (antibody, human IgG1, lambda, L234A L235A)
heavy: not shown
light: QTVVTQEPSLSVSPGGTVTLTCGLSSGTVTAINYPGWYQQTPGQAPRTLIYNTNTRHSGVPDRFSGSISGNKAALTITGAQAEDEADYYCALYMGNGGHMFGGGTKLTVLGQPKAAPSVTLFPPSSEELQANKATLVCLISDFYPGAVTVAWKADSSPVKAGVETTTPSKQSNNKYAASSYLSLTPEQWKSHRSYSCQVTHEGSTVEKTVAPTECS
notes: also called anti-PD-L1 antibody; modified IgG1 antibody
- binding result [1]: no binding
- Kd [2]: 555 pM
- EC50 (read off the curve) [3]: ~6 ng/mL
- binding result [4]: no binding (tested: 5 µg/ml)
- binding result [5]: no binding
- Kd [6]: < 1 pM
- binding result [7]: no binding (tested: 5 µg/ml)
- EC50 (read off the curve) [8]: ~6 ng/mL
- EC50 (read off the curve) [9]: ~5 ng/mL
- binding result [10]: no binding (tested: 5 µg/ml)
- binding result [11]: no binding (tested: 5 µg/ml)

B2: wild type BCD-135 Fab antibody (Fab, V domains shown)
VH: EVQLVESGGGVVRPGGSLRLSCAASGFTFDDYAMSWVRQAPGKGLEWVSDISWSGSNTNYADSVKGRFTISRDNAKNSLYLQMNSLRAEDTALYHCARAPLLLAMTFGVGSWGQGTLVTVSS
VL: QTVVTQEPSLSVSPGGTVTLTCGLSSGTVTAINYPGWYQQTPGQAPRTLIYNTNTRHSGVPDRFSGSISGNKAALTITGAQAEDEADYYCALYMGNGGHMFGGGTK
notes: Fab made in E. coli and used as supernatant; also called Wild-BCD-135VH; control wild BCD-135 Fab
- Response [12]: 0.0903

B3: 1m-BCD-135VH (Fab, V domains shown)
VH: B2 VH with D30A, D31N, R98K, M105T
VL: B2 VL with M94V, N96T, G98S
notes: Fab from E. coli supernatant; also called BCD-135 mutant Fab antibody 1m
- Response [12]: 0.0971

B4: 2m-BCD-135VH (Fab, V domains shown)
VH: B2 VH with D30N, R98K, L102P, M105T
VL: B2 VL with M94T, N96T, G98S
notes: Substitutions derived from the printed CDR strings; Fab from E. coli supernatant; also called BCD-135 mutant Fab antibody 2m
- Response [12]: 0.0505

B5: 4m-BCD-135VH (Fab, V domains shown)
VH: B2 VH with D30A, D31N, R98K, L102P, M105T
VL: B2 VL with M94V, N96T, G98S
notes: Substitutions derived from the printed CDR strings; Fab from E. coli supernatant; also called BCD-135 mutant Fab antibody 4m
- Response [12]: 0.0637

B6: 5m-BCD-135VH (Fab, V domains shown)
VH: B2 VH with D30K, D31S, M34I, R98K, L102M, M105A
VL: B2 VL with M94Y, N96T, G98S
notes: Substitutions derived from the printed CDR strings; Fab from E. coli supernatant; also called BCD-135 mutant Fab antibody 5m
- Response [12]: 0.0623

B7: 6m-BCD-135VH (Fab, V domains shown)
VH: B2 VH with D30S, D31T, R98K, L102V, M105I
VL: B2 VL with M94T, N96T, G98S
notes: Substitutions derived from the printed CDR strings; Fab from E. coli supernatant; also called BCD-135 mutant Fab antibody 6m
- Response [12]: 0.0945

B8: 7m-BCD-135VH (Fab, V domains shown)
VH: B2 VH with D30A, R98K, L102P, L103S, M105I
VL: B2 VL with M94E, N96T, G98S
notes: Substitutions derived from the printed CDR strings; Fab from E. coli supernatant; also called BCD-135 mutant Fab antibody 7m
- Response [12]: 0.0637
